Patent US20240294637A1 (DENDROCYTE BIOTECH, published 2024)

Key:
[1] = target: T1, CD300a on CHO transfectant cell surface (UniProt Q9UGN4 18-299, limits assumed); assay: flow cytometry on CD300a CHO transfectants
T1 construct: whole, on cells; Said to be 'similarly expressed in CHO cells'; also called CD300a transfected cells
T1 sequence (looked up): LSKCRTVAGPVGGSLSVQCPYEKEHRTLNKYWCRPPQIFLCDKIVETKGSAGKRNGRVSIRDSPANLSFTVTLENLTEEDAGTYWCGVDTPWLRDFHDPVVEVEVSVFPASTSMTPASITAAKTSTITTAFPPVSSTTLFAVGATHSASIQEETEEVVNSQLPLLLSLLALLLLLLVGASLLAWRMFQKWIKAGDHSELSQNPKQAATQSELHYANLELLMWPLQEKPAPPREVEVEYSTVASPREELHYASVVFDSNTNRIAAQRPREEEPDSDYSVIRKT

[2] = target: CD300f^L4 expressed in CHO cells (isoform of CD300f which includes the amino acid sequence …) (human) (UniProt Q8TDQ1); assay: flow cytometry MFI ratio, CD300f^L4 against CD300f^S4 CHO transfectants
[3] = target: T2, CD300f-Ig fusion protein (recombinant CD300f-Fc protein, Sino Biologicals) (human, UniProt Q8TDQ1 20-156); assay: Bio-Layer Interferometry (BLItz), CD300f-Fc on AHC biosensor, DCR-2 at 8.333, 16.67, 33.33, 66.67 and 0 nM, global 1:1 fit; same value in rows Index 1 to 4
T2 construct: domain: CD300f Ig-like domain; Bought reagent; also called CD300f-Fc recombinant protein; CD300f Ig-like domain; not shown: Ig Fc part (captured by goat anti-human Ig Fc / human IgG Fc capture sensor)
T2 sequence (looked up): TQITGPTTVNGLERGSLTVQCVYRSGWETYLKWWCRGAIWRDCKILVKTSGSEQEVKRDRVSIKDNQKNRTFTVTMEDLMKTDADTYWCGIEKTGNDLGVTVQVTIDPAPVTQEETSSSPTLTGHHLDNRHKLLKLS
Experimental: (§1) DCR-2 was assessed for affinity for CD300f using a BLItz System (Fortebio, Pall Life Sciences). CD300f-Fc recombinant protein was immobilized to a human IgG Fc capture sensor. A five point dilution series of each mAb was tested for association and dissociation. Kinetic rate constants were estimated using BLItz Pro software with a global fitting 1:1 binding model.
(§2) The kinetics of binding of DCR-2 to CD300f-Fc recombinant protein was determined using Bio-Layer Interferometry analysis on a BLItz System (Fortebio, Pall Life Sciences).

[4] = target: T2, CD300f-Ig fusion protein (recombinant …); assay: Bio-Layer Interferometry (BLItz), CD300f-Fc on AHC biosensor, DCR-2 at 8.333, 16.67, 33.33, 66.67 and 0 nM, global 1:1 fit; same value in rows Index 1 to 4; Ka Error 7.087e3
Experimental: as §1, §2

[5] = target: T2, CD300f-Ig fusion protein (recombinant …); assay: Bio-Layer Interferometry (BLItz), CD300f-Fc on AHC biosensor, DCR-2 at 8.333, 16.67, 33.33, 66.67 and 0 nM, global 1:1 fit; same value in rows Index 1 to 4; Kd Error 3.58e-5
Experimental: as §1, §2

B1: Monoclonal antibody DCR-2 (antibody, V domains shown)
VH: MESGGGLVQPGGPLKLSCAASGFGFSGSWMSWVRQAPGKGLEWIGQINPDSSTINYTPSLKDKFIISRDNAKNTLYLQINKVRSEDTALYYCARRGFFEGYSAWFAYWGQGTLVTV
VL: ILMTQTPKFLLVSAGDRVTITCKASQSVSNDVAWYQQKPGQSPSLLIYYASNRNTGVPDRFTGSGYETDFTFTISTVQAEDLAVYFCQQDYTSPWTFGGGTKLEIKR
notes: also called mAb DCR-2
[1]
  binding result: no binding
[2]
  fold difference in binding compared to CD300f^S4: < 2 fold
[3]
  Kd: 0.366 nM
[4]
  kon: 514000 M⁻¹ s⁻¹
[5]
  koff: 0.000188 s⁻¹
